Laboratory results taken from the nanobody polyreactivity screen of Harvey et al. (2022).

Assay: yeast display, Sf9 membrane polyspecificity reagent, FACS + sequencing; frameworks hold sequencing errors
How it was run: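 Sorting gates, low and high (top ~1%), were placed on anti-HA fluorescence to track expression and on streptavidin fluorescence to track reagent binding. A clone's polyreactivity label is taken from the gate it came out of. The reagent was 10% biotinylated, detergent-solubilized Sf9 membrane, applied for 1 hour at 4 °C to galactose-induced yeast display cells.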

Row | Sequence | polyreactivity (PSR sort gate)
1 | QVQLVESGGGLDQAGGSLRLSCAASGRILRYYTMGWYRQAPGKERELVAAISRSGGGTYYADSVKGRFTISRDNAKNTVYLQMNSLKPEDTAVYYCAKQTHQKAYDYWGQGTQVTVSS | high polyreactivity
2 | QVQLVESGGGLVQAGGSLRLSCAASGLIYVTNAMGCYRQAPGKERELVAAITSVGSTNYADSVKGRFTISRDNAKNTVYLQMNSLKPEDTAVYYCAAGVIADQSIGPTWSGSEGDYWGQGTQVTVSS | low polyreactivity
3 | QVQLVESGGGLVQAGGSLRLICAGSGLTFPYYTMGWYRQAPGEERELVAAISRRGGSTYYADSVKGRFTISRDNAKNTVYLQMNSLKPEDTAVYYCAADKYSWYDYWGQGTQVTVSS | low polyreactivity
4 | QVQLVESGGGLVQAGGILRLSCAASGSIFDVYAMGWYRQAPGKERELVAAINRGGSTNYADSVKGRFTISRDNAKNTVYLQMNCLKPEDTAVYYCAADIVWYVYNGYYWIFDYWGQGTQVTVSS | high polyreactivity
5 | QVQLVESGGGLVQAGGSLRLSCAASGRTFYGYTMGWYRQAPGKERELVAAISTGGGSTYYADSVKGRFTISRDNAKNTVYLQMNSLKPEDTEVYYCAARGGSYSFRRYNYWGQGTQVTVSS | high polyreactivity
6 | QVQLVESGGGLVQAGGSLRLSCAASGFTFIRYAMGWYRQAPGKEREVVAAISWRVGITYYADSVKGRFTISRDNAKNTVYLQMNSQKPEDTAVYYCARDYRNPPFAYEYWGQGTQVTVSS | low polyreactivity
7 | QVQLVESGGGLVQAGGSLRLSCAASGSIFAYYAIGWYRQAPGKEREFVAAISISGGSTNYADSVKRRFTISRDNAKNTVYLQMNSLKPEDTAVYSCAATSRWSSFGFYGQYNFWGQGTQVTVSS | high polyreactivity
8 | QVQLVESGGGLVQAGGSLRLSCAASGRTFAANTMGWYRQAPGKERELVAAISSSGGSTSYADSVKGRFTISRDNAKNTVYLQMNSLKPEDTAVYYCNTLLRRDFNYWGQGTQVTVSS | high polyreactivity
9 | QVQHVESGGGLVQAGGSLRLSCAASGSILGWYAMGWYRQAPGKERELDAAITTAGDSTYYADSVKGRFTISRDNAKNTVYLPLNSLKPEDTAVYYCATRYQVRRGSGPSYDYWGQGTQVTVSS | high polyreactivity
10 | QVQLVESGGGLVQAGGSLRLSCAASGITFQYYAMGWYRQAPGKERELVASISYRGGRTYYADSVKGRFTISRDNAKNTVYLQMNSLKQEDTSVYYCAADWRYTTFWTLRYYGFDYWGQGTQVTVSS | high polyreactivity
11 | QVQLVESGGGLVQARGSLRLSCAASGSTFDSNAMGCYRQAPGKERELVAAITRGGSTNYADSVKGRFTISRDNAKNTVYLQMNSLNPEDTAVYYCAAASETLGSATYGSGYDYWGQGTQVTVSS | low polyreactivity
12 | QVQLGESGGGLVQAGGSLRLSCAASGSIFGSYAMGWYRQAPGKERELVAAISKSGGNTYYADSVKGRFTISRDNAKNTDYLQMNSLKPEDTAVYYCAAYGFYRWRGYDYWGQGTQVTLSS | high polyreactivity
13 | QDQLVESGGGLVQAGGSLRLSCAASGSIFRYYAMGWYIQAPGKEREFVASITYRGGRTYYADSVKGRFTISRDNAKNTFFLQMNSLKPEDTAVYYCAARTRAGAWTSKYHDYWGQGTQVNVSS | high polyreactivity
14 | QVQLVESGGGLVQAGGSLRLSCAASGYIFATNAMGWYRQSPGKERELVAAITRSGGRTYYADSVKGRFTISRDNAKNTVYLQMNSLKPEDTAVYYCAAARPTNIYYYWGQGTQVTVSS | high polyreactivity
15 | QVQLVESGGGLVQAGGSLRLSCAASGRIIGYNAMGWYRQAPGKERELVASIRYSGGSTYYADSVKGRFTISRDNAKNTVYLQMNSLKPEDTAVYYCATRVTYRRRFDYWGQGTQVTVSS | high polyreactivity
16 | QVQLVESGGCLVQAGGSLRLSCAASGLIFRGYAMGWYRQAPGKERELVATITGGGRTNYADSVKGRFTLSRDNAKNTVYLQMNSLKPEDTAVYYCNTGYYGRLRDDYWGQGTQVTVSS | high polyreactivity
17 | QVQRVESGGGLVQAGGSLRLSCAASGSTFVGYAMGWYRQAPGKERELVAAINDSGGSTYYADSVKGRFTISRDNAKNTVYLQMNSLKPEDTAVYYCAADSSGTSWYTFDYWGQRTQVTVSS | low polyreactivity
18 | QDQLVESGGGLVQAGGSLRLSCAASGLIFRHYAMGWSRQAPGKERELVAAITWSGGSTYYADSVKGRFTISRDNAKNTVYLQMNSLKAEDTAVYYCAAEGTGYSVGWQYGYWGQGTQVTVSS | low polyreactivity
19 | QVQLVESGGGLVQAGGSLRLSCAASGSTFGDNAMGWYRQAPGKEREFVATISWDTATTYYADSVKARFTISRDNAKNTVYLQMNSLKPEDTAVYYCAARATAYYTVPSYADVDYWGQGTQVTVSS | low polyreactivity
20 | QVQLVESGGGIVQARGSLRLSSAASGNIFRINGMGWSRQERGKERELVASITRSGSTYYADSVKGRFTISRDNAKNTVYLQMNILKPEDTAVYYCAADSSSYGVRFDYWGQGTQVTVSS | low polyreactivity
21 | QVQLVESGGGLVQAGASLRLSCAASGSTSYPYAMGWYRQAPWKEREFVAAITRSGGSTYYADSVKGRYTISRDNAKNTVYLQMNSLKPEDTAFYYCAARRYYFTDWYRRYDYWGQGTQVTVSS | high polyreactivity
22 | QVQLVESGGGLVQAGGSLRLSCAASGSTFYANTMGWYRQAPGKERELVAAISRRGGRTYYADSVKGRFTISRDNAKNTVYLQMNSLKPDDTAVYYCARRGYSSRTIKRYNYWGQGTQVTVSS | high polyreactivity

Row | Sequence | polyreactivity (PSR sort gate)
23 | QVQLVESGGRLVQAGGSLRLSCAASGFIISFNAMGWYRQATGKERELVATISGGGGSTYYADSVKGRFTISRDKAKNTVYLQMKSLKPEDTAVYYCAKSYRYRGDYWGQGTQVTVSS | high polyreactivity
24 | QVQLVESGGGLVQAGVSLRLSCASTGLTFRYYAMGWYRQAPGKERELVAAISSGTGTYYADSVKGRFTISRDNAKNTVYLQMNSLKPEDTAVYYCAAVFFRARVIRGYNYWGQGTQVTVSS | high polyreactivity
25 | QVHLVESGGGLVQAGGSLRLSCAASGFTFLDNAMGWYRQAPGKERELVAAISGIGGSTSYADSVKGRFTISRDNAKNTVYLQMNSLKPEDTAVYYCATRWKTVGRDTIFAYDYWGQGTQVTVSS | low polyreactivity
26 | QVQLVESGGGLVQAGGSLRLSCAASGNIIDANAMGWYRQAPGKERELVAAITSSGGSTYYADSVKGRFTISRDNANNTVYLQMNSLKPEDTAVYYCAKSHAIYYWWDESWGHGTQVTVSS | low polyreactivity
27 | QVQLVESGGGSVQAGGSLRLSCAASGFTFRYYAMGWYRQAPGKERELVARISYSGTSTYYADSVKGRFTISRDNAKNTVYLQMNSLKPEDTAVYYCAKLHRTYRQYIYDYWGQGTQVTVSS | high polyreactivity
28 | QVQHVESGGGLVQAGGSLRLSCDAYGSTFYYYAMGWYRQAPGKERELVASISRGGSTNYAYSVKGRFTISRDNAKNTVYLQMNSLKAEDTAVYYCNADRYLRPKSWWTVYYERDYWGQGTQVTVSS | low polyreactivity
29 | QVQLVESGGGLVQAGGSLRLSCAASGRIFLVYAMGWYRQAPGKERELVAAISWRGGRTYYADSVKGRFTISRDNAKNTVYLQMNSLKPEDTAVYYCAAASKYSQFEYDYWGQGTQVTVSS | high polyreactivity
30 | QVQLVESGGRLVQAGGSLRLSCAASGRTFYRYVMGWYRQAHGQVRELVAAISEGGGSTFYADSVKGRFTISRDNAKNTVYLQLNSLKPEDTAVYYCAADYYVRGGFFRYDYWGQGTQVTVSS | low polyreactivity
31 | QVQLVESGGGLVQAGGSLRLSCAASGSIFYYYAMGWYRQAPGKERELVASITRGGSTYYADSVKGRFTISRDNAKNTVYLQMNSLKPEDTAVYYCNADLGAYVPFDYWGQGTQVTVSS | high polyreactivity
32 | QVQLQESSGGLVQAGGTLRMSCAASGTIFHFHIMGWYRQAPGKEREFVAAISYGTSTYYADSVKCRFTISRDNAKNTVFLQMNSQNPEDNEVYYCAVYDYLEVYCWYWGQGTQVTVSS | low polyreactivity
33 | QVQLVESGGGLVQAGGSLRLSCAASGRTFYSNAMGWYRQAPGKERELVAAISYNDGSTYYADSVKGRFTISRDNAKNTVYLQMNSLKPEDTAVYYCNADVGAWAWYTRYDYWGQGTQVTVSS | low polyreactivity
34 | QDQLVETGGGLVQAGGSLRLSCSASGSIFAAYTMGWYRQAPGKECELVATISSGGSTYYADSVKGRFTISRDNAKNTVYLQMNSLKPEDTAVYYCAAVAYTYTEYEYWGQGTQVTVSS | low polyreactivity
35 | QVQLVESGGGLVQAGGSLRLSCAASGRIFTKYAMGWYRQAPGKERELVAAISGSGGNTYYADSVKGRFTISRDNAKNTVYLQMNSLKPEDTAVYYCAVESWRYVGFGYWGQGSQVTVSS | high polyreactivity
36 | QVQLVESGGGLVQAGGSLRLSCAASGRTSLGYDMGWYRPAPGQEGELVAAITRSGGSTYYADSVKGRFTISRDNAKNTVYLQMNSLKPEDTAVYYCNRVLPHPDGYGVGARGYWGKGTQVTVSS | high polyreactivity
37 | QVQLVESGGGLVQAGGSLPLSCAASGSTFSPYDMGWYIQAPGKDRELVAVITGSDGTYYADSVKGRFTITRDNAKNTVYVQMNSLKPEDTAVYYCATDWNFGRWYTLGVEMDYWGQGTQVTVSS | low polyreactivity
38 | QVQLVESGGGLVQAGGSLRLSCAASGLTLETIAMGGYRQAPGKERELVAGITYSGGTTYYADSVKGRFTISRDNAKNTVYLQMNSLKPEDTAVFYCAAHTRTSGHIYWGQGTQVTVSS | low polyreactivity
39 | QVQLVESGGGLVQAGGSLRLSCAASGSIFYGNTMGWYRQAPGKERELVAAITWSGDSTYYADSVKGRFTISRDNAKNTVYLQMNSLKPEDTAVYYCNADQTGVYYAGEGNYWGQGTQVTVSS | low polyreactivity
40 | QVQLEESGGGLVQAGGSLRLSCAASGSTFAPNAMGWYRAAPGKEMELVASIRRGGSTHYADSVKGRFTISRDNAKNTVYFQMNSLQPEDTAVYYCAAEFRDVSSNGYDFLGQGTQVTVSS | low polyreactivity
41 | QVHLVESGGGLVQAGGSLRLICAASGSIFRWNAMGWYRQAPGKEREFVATISSGRNTKYADSVKGRFTISRDNAKNTVYLQMTSLKPQDTAVNDCAAAVKRALDYWGQGTQVTVSS | high polyreactivity
42 | QVQLVESGGGLVQAGGSLRLSCAASGSIIYSYAMGWYRQAPGKERELVAAISTSAGTTYYADSVKGRFTISRDNAKNTVYLQMNSLKPEDTAVYYCATQVWSHKYWYYYWGQGTQVTVSS | high polyreactivity
43 | QVQLVESGGGLVQAGGSLRLSCAASGITFYGYDMGWYRQAPAKERELVAAITSDGITNYADSVKGRFTISRDNAKNTVYLQMNSLKPEDTAVYYCNAVFRPGSFLYDWRAYDYWGQGTQVTVSS | low polyreactivity
